Measured values: the nanobody polyreactivity screen of Harvey et al. (2022)

Test: yeast display, Sf9 membrane polyspecificity reagent, FACS + sequencing; frameworks hold sequencing errors
Procedure, shortened: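 A nanobody's polyreactivity label depends on the gate it was sorted from. Yeast display cells were stained with 10% biotinylated, detergent-solubilized Sf9 membrane reagent for 1 hour at 4 °C, enriched on streptavidin microbeads and sorted by FACS. The low and high (top ~1%) gates were set on anti-HA fluorescence for expression and streptavidin fluorescence for reagent binding.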

Sequence	polyreactivity (PSR sort gate)
QVQLVESGGGLVQAGGSLRLSCAASGRIFPSYAMGWYRPAPGKERELVAAITWSGGSTYYAHSVKGRFTISRDNAKNTVYLLRNSLKPEDTAVYYCNRVERRGTYDYWGQGTQVSVSS	high polyreactivity
QVQLVESGGGLVQAGGSLRLSCAASGRIFWLNAMGWYRQAPGKEREFVASITYGSDSTYYADSVKGRFTISRDNAKNTVYLHMNSLKPEDTAVYYCNREGWHYGPYGYWGQGTQVTVSS	low polyreactivity
QVQLVESGGGLVQAGGSLRLSCAASGRTFTRYAMGWYRQAPGKERELVAAISWSGGSTYYADSVKGRFTISRDNAKNTVYLQMNSLKPEDTAVYYCNAYYYYPEFNYWGLGTQVTVSS	high polyreactivity
QVQLVESGGGLVQAGRSLRLSCAASGSIISVYAMGLYRQAPGKERELVADITGTGDTYYADSVKGRFTISRDNAKNTVYLQMNSLIPEDTAVYYCNTVYELYYDPSVTEDYWGQGTQVTVSS	low polyreactivity
QVQLQVSGGDLVQAGGSLRLSCAASGTIYGLTAMGWYRLAPGKEREFVAAITDGGNTNYADSVKGRFTISRDNAINTVYLQMISLKPEDTAVYYCAVLFSDDAYYAYWGQGTQVTVSS	low polyreactivity
QVQLVESGGGLVQAGGSLRLSCAASGSIFGTNAMGWYRQAPGKERELVAAISTSADITYYADSVKGRFTISRDNAKNTVYLQMNSLKPEDTAVYYCNKRKWPTFTYAMNYWGQGTQVTVSS	low polyreactivity
QVQLVESGGGLVQAGGSLRLSCAASGSIFPFNAMGWYRQAPGKERELVAAISVNGGTTYYADSVKGRFTISRDNAKNTVYLQMNSLKPEDTAVYYCNARRAYLYYVSYRYGYWGQGTQVTVSS	low polyreactivity
QVQLVESGGGLVQAGGSIRLSCASSGSTFTIYAMGWYRPAPGKERELVAAISGTGGTKYADSVKGRFTISRDNAKNTVYLQMNSLKPEDTAVYYCAVGLVPLRDGWHFYYEFDSWGQGTQVTVSS	low polyreactivity
QVQLVESGGGLVQAGGSLRLSCAASGFTSRKNAMGWYRQAPGKERELVAAITQSSGRTYYADSVKGRFTISRDNAKNTVYLQMNSLKPEDTAVYYCAARRGGEDDYWGQGTQGTVSS	low polyreactivity
QVQLVESGGGLVQAGGSLRLSCAASGSTFSSYGMGWYRQAPGKERELVASITIRGGSTYYADSVKGRFTISRDNAKNTVYLQMNSLKPEDTAVYYCAADVTNRGTWVIYGYYYWGQGTQVTVSS	low polyreactivity
QVQLVESGGGLVQAGGSLRLSCAASGRIFYKYAMGWYRQAPGKERELVAGISRRGGTTNYADSVKGRFTNSRDNAKNTVYLQMNSLKPEDTAVYYCAVRPLYDRRYTAVRRYDYWGQGTQVTVSS	high polyreactivity
QVQLVESGGGLVQAGGSLRLSCAASGYTIYVNAMGRYRQAPAKQRQLVASNRRDSTYYADSVKGRFTISRDNAKNTVYLQMNSLKPEDSAVYYCAVDWYPWLYDGRTYEYWGQGTQVTVSS	low polyreactivity
QVQLVESGGGLVQAGGSLRLSCAASGSTFYRYTMGWYRQAPGKEREFVATITGRGGSTYADSVKGRFTISRDNAKNTVYLQMNSLKPEDTAVYYCAKRQTYREYDYWGQGTQVTVSS	low polyreactivity
QVQLVESGGGLVQAGGSLRLSCAASGSTFFSYAMGWYRQAPGKDRELVAAISNSGGTTYYADSVKGRFTISRDNAKNTVYLQMNSLKPEDTAVYYSATRARYVGGYKYNYWGQGTQVTVSS	high polyreactivity
QVQLEESGGGLVQAGGSLRLTCAGSGSIFDGNSMGWDRQAPGKEMELVASISWSGGTTYYADSVKGRFTISRDNATNTVYLQMNSLIPEDTAVYYCNKAGGYRRYSFWSGDYWAGLDFLGQGTQVTVSS	low polyreactivity
QVQLVESGRGLVQAGGSLRLSCAASGIIFTRYAMGWYRQAPGKERDLVAGISYSGSSTYYADSVKGRFTISRDNAKNTVYLQMNSLKPEDTAVYYCAAEFVTYYSSSKRAYYYWGQGTQVTVSS	high polyreactivity
QVQLVESGGGLVQAGGSLRLSCAASGRTFPGYGMGWYRQAPGKERELVAVITSNGGITYYADSVKGRFTISRDNAKNTVYLQMNSLKPEDTAVYYCAAQNVWFYGFWRDYWGQGTQVTVSS	low polyreactivity
QVQLVESGGGLVQAGGSLRLSCAASGRTFSYAMGWYRQAPGKERELVAAISSGARTYYADSVKGRFTISRDNAKNTVYLQMNSLIPEDTAVYYCNARSRYEGLNYWGHGTQVTVSS	high polyreactivity
QVQLVESGGGLVQAGGSLRLSCAASGRIFGGYAMGWYRQAAGKERELVAAISRRGGSTYYADSVKGRFTISRDNAKNTVYLQMNSLKPEDTAVYYCNAVLSDQARLTRVDYDYWGQGTQVTVSS	high polyreactivity
QVQLVESGGGLVQAGGSLRLSCAASGRIFTYYTMGWYRRAPGKEREFVAAISWSGTSTYYADSVKGRFTISRDNAKNTVYLQMNSLKPEETAVFNCAARNWYSRYDYWGQGTQVTVSS	high polyreactivity
QVQLVESGGGLVQAVGSLRLSCAASGRTFAFYTMGWYRPAHGKERELVAAINWSGTRTYYADSVKGRVTISRDKAKNTVYLQMNSLKPEDTAVYYCNVAFFSLSLRTLGVEYWGQGTQVTVST	high polyreactivity
QVQLVESGGGLVQAGGSLRLSCAASGRTFRRYTMGWYRQAPGKERELVATISSGGSTYADSVKGRFTISRDNAKNTVYLQMNSLKPEDTAVYYCAATAIYPSAWRMDYWGQGTQVTVSS	high polyreactivity

Sequence	polyreactivity (PSR sort gate)
QVQLVESGGGLVHAGGSLRLSCAASGSIFTFYTMGWYRQAPGKERELVAAINWSGSRTYYADSVKGRFTISRDNAKNTVYLQMNSLKPEDTAVYYCAAYYYTGPTTVESDYWGQGTQVTVSS	high polyreactivity
QVQLVESGGGLVQAGGSLRLSCAASGFTFWWYTMGWYRPAPGKERELVAAITSGGSTYYADSVKGRFTISRDNAKNTVYLQMNSLKPEDTAVYYCNVVPYLYGLDGYDYWGQGTQVTVSS	high polyreactivity
QVQLVESGGGLVQAGGSLRLSCAASGRIFQGFAMGGYRQAPGKERELVAAISSGGRTYYADSVKGRFTISRDNAKNTVYLQMNSLKPEDTAVYYCAARSPKANGLQRFDYWGQGSQVTVSS	high polyreactivity
QVQLVESGGGLDQAGGSLPLSCAASGITSYVYAMRWYRQAPGKERELVASISWTGGNTYADSVKGRFTISRDNAKNTVYLPMNSLKPEDTAVYYCNAGRSWDYWYGYDYWGQGTQVTVSS	low polyreactivity
QVQLVESGGGLVQAGGSLRLSCAASGSIFVGYAMGWYRQAPGKEREWVAAIRSGGSTKYADSVKGRFTISRDNAKNTVYLQMNSLKPEDTAVYYCNVEVHPYYWVDNFQRFPVLHNYWGQGTQVTVSS	low polyreactivity
QVQLVESGGGLVQAGGSLRLSCAASGSIFVRNGMGWYRQAPGKERELVASITSGTITYYADSVKGRFTISRDNAKNTVYLQINSLKPEDTAVYYCNAGCRSSRFKRPYFRERNYWGQGTQVTVSS	high polyreactivity
QVQLVESGGGLVQAGGSLRLSCAASGSIFYPNAMGWYRQAPGKERELVAAISIGGGRTYYADSVKGRFTISRDNAKNTVYLQMNSLKPEDTAVYYCAATRVDSDDRTRFYYWGQGTQVTVSS	high polyreactivity
QVQLVESGGGLVQAGGSLRLSCAASGSIFRKNAMGWYRQAPGKERELVATISGGGSTTYADSVKGRFTISRDNAKNTVYLQMNSLKPEDTADYYCAARSTWFQIRYGYWGQGTQVTVSS	high polyreactivity
QVQLVESGGGLVQAGGSLRLSCAASGSTFSYYPMGWYREAPGQERELVAAISSRGSSTYYADSVKGRFTISRDNAKNTVYLQMNSLKPEDTAVYYCNAERVVYKWYDYWGQVTQVTVSS	high polyreactivity
QVQLVESGGGLVQAGGSLRLICAASGSIFQPYAMGWYRQAPGKERELVAAINGRGGSTHYADSVKGRFTISRDNAKNTVYLQMNSLKPEDTAVYYCAARYYRDYRWYTYAYDYWGQGTQVTVSS	high polyreactivity
QVQLVESGGGLVQAGGSLRLSCAASGRTFYPYAMGWYRQAPGTERELVAAISRSGGGTYYADSVKGRFTISRDNAKNTVYLQMNSLKPEDTAVYYCAAARYLSIYNYWGQGTQVTVSS	low polyreactivity
QVQLVESGGGLVQAGGSLRLSCAASGFTFSKYVMGWYRQAPGKERELVAAISKRGGSTYYADSVKGRFTISRDNAKNTVYLQMNSLKPEDTAVYYCAARYYLEPILEMDYWGQGTQVTVSS	high polyreactivity
QVQHVESGGGLVQAGGSLLLSCAASGSITVSYMGWYRQAPGKERELVAAISFSGASTYYADSVKGRFTISRDDAKNTVYLQMNSLKPEDTAVYYCAAEYVIYYWFEWLDLDYWGQGTQVTVSS	high polyreactivity
RVQLVESGGGLVQAGGSLRLSCAASGSTFLVYAMGWYRQAPGKERELVAVIRWRDGSTYYADSVKGRFTISRDNAKNTVYLQLNSLKPEDTAVYYCAAVYWGEEYEYWGQGTQVTVSS	low polyreactivity
QVQLVESGGGLVQAGGSLRLSCAASGFTFGVYAMGWYRPAPGKERELVAAITSGGGRTYADSVKGRFTISRDNAKNTVYLQMNSLKTEDTADYYCAAEGVPLRVVLDYSYWDYDYDYWGQGTQVTVSS	low polyreactivity
QVQLEETGGGLVHAGGILRLSCAASGIIYVVNAMGWYRQAPAKERELVAAISRNGGSTYYADSVKGRFTISRDNAKNTVYLQMNSLIPEDTAVYYCADRTVGRNAGFDYWGQVTQVTVSS	high polyreactivity
QVQLVESGGGLVQAGGSLRLSCAASGFTFDHNDMGWYRQAPGKEMELVAAITWSAGSTYYADSVKGRFTISRDNAKNTVYLEMNSLKPEDTAVYYCAADAWYYSIYRGGDYWGQGTQVTVSS	low polyreactivity
QVQLVESGGGLVQAGGSLRLSCAASGSIFIAYTMGWYRQAPGKERELVAAISQSGGGTHYADSVKGRFTISRDNAKNTVYLQMNSLKPEDTAVYYCAADRPATSDYTGYDYWGQGTQVTVSS	low polyreactivity
QVQLVESGGGLVQAGGSLRLSCAASGRIFNENAMGWYRQAPGKERELVAAISRRGGTTYYADSVKGRFTISRDNAKNTVYLQMNSLIPEDTAVYYCNARYSKKGESQREYDYWGQGTQVTVSS	low polyreactivity
QVQLVESGGGLVQAGGSLRLSCAASGFTYTYAMGWYIQAPGKERELVAAISKSGGRTYYADSVKGRFTISRDNAKNTVYLQMNSLKPEDTAVYYCAADYSSTYDYWGQGTQVTVSS	high polyreactivity
QVQLEESGGGLVQAGGSLRLSCAASGNIFYYYAMGWYRQAPGKEREVVATITSGGSTNYADSVKGRFTISRDNAKNTVYLQMNSLKPEDTAVYYCAADRRRTYYWLSSYFEGYYWGQGTQVTVSS	low polyreactivity
